One molecule from publication PMC4643373 can be followed below.

The data set deals with FMRP isoform 1 (FMRP ISO1) (human (title of cited purification …, UniProt Q06787 1-632)). The data set can be described thus: fluorescence spectroscopy.

On to GGGUACGGGAGGGUAAGGCUGUGGGUCGCGUG (structured_RNA, 2-aminopurine replacing A5) [NR2B 2AP mRNA], for which binding was put at a Kd of 370 nM.
